Laboratory results taken from patent US20160266124A1 (published 2016).

Target: 15F12
Test: SPR

Kd [nM] | Binder
0.3 | pHP1 (other) VDSGNDVTDIADDGCPKPPEIAHGYVEHSVRYQCKNYYKLRTEGDGVYTLNNEKQWINKAVGDKLPECEAVCGKPKNPANPVQRILGGHLDAKGSFPWQAKMVSHHNLTTGATLINEQWLLTTAKNLFLNHSENATAKDIAPTLTLYVGKKQLVEIEKVVLHPNYSQVDIGLIKLKQKVSVNERVMPICLPSKDYAEVGRVGYVSGWGRNANFKFTDHLKYVMLPVADQDQCIRHYEGSTVPEKKTPKSPVGVQPILNEHTFCAGMSKYQEDTCYGDAGSAFAVHDLEEDTWYATGILSFDKSCAVAEYGVYVKVTSIQDWVQKTIAEN
0.3 | pHP2 (other) VDSGNDVTDIADDGCPKPPEIAHGYVEHSVRYQCKNYYKLRTEGDGVYTLNDKKQWINKAVGDKLPECEADDGCPKPPEIAHGYVEHSVRYQCKNYYKLRTEGDGVYTLNNEKQWINKAVGDKLPECEAVCGKPKNPANPVQRILGGHLDAKGSFPWQAKMVSHHNLTTGATLINEQWLLTTAKNLFLNHSENATAKDIAPTLTLYVGKKQLVEIEKVVLHPNYSQVDIGLIKLKQKVSVNERVMPICLPSKDYAEVGRVGYVSGWGRNANFKFTDHLKYVMLPVADQDQCIRHYEGSTVPEKKTPKSPVGVQPILNEHTFCAGMSKYQEDTCYGDAGSAFAVHDLEEDTWYATGILSFDKSCAVAEYGVYVKVTSIQDWVQKTIAENHHHHHH
